One protein from patent US5276170A, “Azido-substituted aromatic amino acids” (The United States of America as represented by the …, priority 1992, dated 1994) can be followed below.

Substrate in this data set: [N-]=[N+]=Nc1cc(O)ccc1C[C@H](N)C(=O)O
Kind of data set: Tyrosine phenol-lyase catalyzed hydrolytic cleavage to ammonium pyruvate and 3-azidophenol. Format: biochemical. To be noted: other: as substrate.

B1: tyrosine phenol-lyase (Citrobacter freundii) (protein)
chain: MNYPAEPFRIKSVETVSMIPRDERLKKMQEAGYNTFLLNSKDIYIDLLTDSGTNAMSDKQWAGMMMGDEAYAGSENFYHLERTVQELFGFKHIVPTHQGRGAENLLSQLAIKPGQYVAGNMYFTTTRYHQEKNGAVFVDIVRDEAHDAGLNIAFKGDIDLKKLQKLIDEKGAENIAYICLAVTVNLAGGQPVSMANMRAVRELTEAHGIKVFYDATRCVENAYFIKEQEQGFENKSIAEIVHEMFSYADGCTMSGKKDCLVNIGGFLCMNDDEMFSSAKELVVVYEGMPSYGGLAGRDMEAMAIGLREAMQYEYIEHRVKQVRYLGDKLKAAGVPIVEPVGGHAVFLDARRFCEHLTQDEFPAQSLAASIYVETGVRSMERGIISAGRNNVTGEHHRPKLETVRLTIPRRVYTYAHMDVVADGIIKLYQHKEDIRGLKFIYEPKQLRFFTARFDYI
In general, Km refers to the concentration of substrate that gives half-maximal velocity. For B1, the Km came out at 1 mM.
